US20190071480A1 (Biogen, published 2019)
Blank lines part the entries; values can stand above or below the binder they belong to.

How the values were obtained:
[1] = target: T1, extracellular domain of activin receptor type IIB (ActRIIBecd), biotinylated (Homo sapiens (Human), UniProt Q13705 27-117, amino-biotinylated with amine-PEG3-Biotin); assay: Mean KD column of Table 5; method not restated (BIAcore as Example 5); species also listed in Table 4
T1 construct: immobilised on a streptavidin-coated sensor chip; also called biotinylated ActRIIBecd; extracellular domain of ActRIIB
T1 sequence: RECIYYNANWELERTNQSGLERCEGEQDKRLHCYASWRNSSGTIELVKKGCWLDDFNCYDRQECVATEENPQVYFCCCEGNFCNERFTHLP
In short: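 SPR at 25° C. and 10 μl/min: analyte at 1.11-90 nM (five concentrations, glycine buffer pH 4.5) passed over a control cell, then over streptavidin-captured biotinylated ActRIIBecd at 50-250 RU. Kinetic and equilibrium constants came from control-subtracted sensorgrams.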

[2] = target: T1, extracellular domain of activin …; assay: BIAcore SPR as Example 5 (method not restated); SD ±2.01 nM
Method: (§1) Biosensor experiments. In one embodiment, experiments were performed on a BIAcore™ T100/T200 instrument (Pharmacia Biosensor AB) in the multichannel mode (serial flow path involving flow cells 1+2+3+4). Flow rate was 10 μl/min; temperature was 25° C.; and data were recorded at 2.5 points/s. All four segments of a sensor chip CMS were coated with streptavidin (Sigma) to a density of 2000 pg/mm² (2000 resonance units) by the aminocoupling procedure. ActRIIBecd (10 mg) and amine-PEG3-Biotin (10 mg, Pierce, Rockford, Ill.) were dissolved in 200 μl H₂O and 10 mg NaCNBH₃ was added to prepare biotinylated ActRIIBecd. The reaction mixture was heated at 70° C. for 24 h, after that a further 10 mg NaCNBH₃ was added and the reaction was heated at 70° C. for another 24 h. After cooling to room temperature, the mixture was desalted with the spin column (3,000 molecular weight cut off (MWCO)). […] Sensograms were recorded during flow of the analyte (the ActRIIBecd-associated polypeptides (i.e., domains) as previously described) first through flow cell 1 (control) then through flow cell 2 (biotinylated ActRIIBecd). […] The sensograms obtained at 1.11, 3.33, 10, 30, and 90 nM analyte were evaluated for equilibrium binding, association rate, and dissociation rate by using the programs supplied with the instrument (BIA evaluation 2.1; Software Handbook. 1995; Pharmacia Biosensor AB).

[3] = target: T1, extracellular domain of activin …; assay: BIAcore SPR, biotinylated ActRIIBecd on chip; SD ±16.71 nM
Method: as §1

[4] = target: T1, extracellular domain of activin …; assay: BIAcore SPR, biotinylated ActRIIBecd on chip; SD ±15.39 nM
Method: as §1

[5] = target: T1, extracellular domain of activin …; assay: BIAcore SPR, biotinylated ActRIIBecd on chip; SD ±12.10 nM
Method: as §1

[6] = target: T1, extracellular domain of activin …; assay: BIAcore SPR as Example 5 (method not restated); SD ±2.12 nM
Method: as §1

[7] = target: T1, extracellular domain of activin …; assay: BIAcore SPR, biotinylated ActRIIBecd on chip; SD ±12.04 nM
Method: as §1

[8] = target: T1, extracellular domain of activin …; assay: BIAcore SPR, biotinylated ActRIIBecd on chip; SD ±11.61 nM
Method: as §1

[9] = target: T1, extracellular domain of activin …; assay: BIAcore SPR, biotinylated ActRIIBecd on chip; SD ±13.97 nM
Method: as §1

B2: Clone No. 9 domain (ActRIIBecd-associated polypeptide) (peptide)
chain: AQAKHKGYKRLKSSCKRHPLY
Kd [3]: 0.0524 µM

B3: Clone No. 8 domain (ActRIIBecd-associated polypeptide) (peptide)
chain: GQAKRKGYKRLKSSCKRHPLY
Kd [4]: 0.0451 µM

B4: Recombinant polypeptide of clones 8 + 21 + 15 (designed binder)
chain: GQAKRKGYKRLKSSCKRHPLYNSKIPKACCVPTELSAISMLYLDENEKVVLKNYQDMVVEGCGCRVDFSDVGWNDWIVAPPGYHAFYCHGECPFPLADHLNSTNHAIVQTLVNSV
Kd [5]: 0.0171 µM

B7: Recombinant polypeptide of clones 10 + 14 + 21 (designed binder)
chain: AQAKHKQRKRLKSSCKRHPLYVDFKDVGWNDHAVAPPGYHAFYCHGECPFPLADHLNSDNHAIVQTKVNSVNSKIPKACCVPTELSAISMLYLDENEKVVLKNYQDMVVEGCGCR
Kd [8]: 0.018 µM

Continued, values first:

Kd [1]: 0.046 µM | Kd [2]: 0.046 µM
B1: SEQ ID NO: 194, cysteine pairs C23-C65^a (designed binder)
chain: VDFSDVGWNDWIVAPPGYHAFYCHGECPFPLADHLNSTNHAIVQTLVNSVAQAKHKQRKRLKSSCKRHPLY
modifications: disulfides C23-C65 (intra)

Kd [6]: 0.0423 µM | Kd [1]: 0.0423 µM
B5: SEQ ID NO: 188, cysteine pairs C15-C44^a (designed binder)
chain: AQAKHKQRKRLKSSCKRHPLYVDFSDVGWNDWIVAPPGYHAFYCHGECPFPLADHLNSTNHAIVQTLVNSV
modifications: disulfides C15-C44 (intra)

Kd [7]: 0.0165 µM
B6: Recombinant polypeptide of clones 8 + 15 + 19 (designed binder)
chain: GQAKRKGYKRLKSSCKRHPLYVDFSDVGWNDWIVAPPGYHAFYCHGECPFPLADHLNSTNHAIVQTLVNSVNSKDPKACCVPTELSAPSPLYLDENEKPVLKNYQDMVVHGCGCR

Kd [9]: 0.017 µM
B8: Recombinant polypeptide of clones 10 + 19 + 14 (designed binder)
chain: AQAKHKQRKRLKSSCKRHPLYNSKDPKACCVPTELSAPSPLYLDENEKPVLKNYQDMVVHGCGCRVDFKDVGWNDHAVAPPGYHAFYCHGECPFPLADHLNSDNHAIVQTKVNSV
